This is an account of results in PMC6179962, “POLE3-POLE4 Is a Histone H3-H4 Chaperone that Maintains Chromatin Integrity during DNA Replication” (Molecular Cell, 2018).

Assay [1] concerns the target tagged POLE3-POLE4 complex (GST-Pole4/His-POLE3) (human) (UniProt Q9NR33). Nature of the assay: pull-down; as a2 but 300 mM NaCl.
The target in the next assay is T1, GST-tagged POLE3 (human, UniProt Q9NRF9 1-147).
T1 construct: DNA polymerase epsilon subunit POLE3, human, full length; cloned in pGEX 6P-1; also called GST-POLE3; source: E. coli BL21(DE3) pLysS, purified (glutathione-Sepharose 4B)
T1 sequence (looked up): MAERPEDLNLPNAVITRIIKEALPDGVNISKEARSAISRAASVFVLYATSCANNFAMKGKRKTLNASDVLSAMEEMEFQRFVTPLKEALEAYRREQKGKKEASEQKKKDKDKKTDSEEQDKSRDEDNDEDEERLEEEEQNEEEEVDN
Nature of the assay: pull-down; GST-tagged POLE3 or POLE4 (WT or mutant) on glutathione beads with His-tagged POLE4 or POLE3; 150 mM and 1 M NaCl (Figures S1A, S1B); salt of Figure 1C not told. As to conditions: both partners purified.

A further assay deals with T2, His-tagged POLE3 (human, UniProt Q9NRF9 1-147).
T2 construct: DNA polymerase epsilon subunit POLE3, human; cloned via Gateway into pDEST17; also called His-POLE3; source: E. coli BL21(DE3) pLysS, purified (Ni-NTA)
T2 sequence (looked up): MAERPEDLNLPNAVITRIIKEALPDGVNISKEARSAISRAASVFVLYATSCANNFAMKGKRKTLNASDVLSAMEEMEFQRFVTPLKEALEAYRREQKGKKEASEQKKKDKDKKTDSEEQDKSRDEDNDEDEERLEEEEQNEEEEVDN
The assay is described as above. As to conditions: both partners purified.

The molecule “purified H3-H4 histones (H3.3 variant) (from UniProt P84243 1-136; P62805 1-103) (complex)” displayed a percent of the interaction at 150 mM NaCl in assay [1] of 50%.

B1: His-tagged POLE4 (natural protein, human, UniProt Q9NR33 1-117, looked up)
chain: MAAAAAAGSGTPREEEGPAGEAAASQPQAPTSVPGARLSRLPLARVKALVKADPDVTLAGQEAIFILARAAELFVETIAKDAYCCAQQGKRKTLQRRDLDNAIEAVDEFAFLEGTLD
notes: DNA polymerase epsilon subunit POLE4, human; cloned via Gateway into pDEST17; also called His-POLE4; source: E. coli BL21(DE3) pLysS, purified (Ni-NTA)
With B1, the binding result in the assay with GST-tagged POLE3 is on record as “binds”.

B2: GST-tagged POLE4 (natural protein, human, UniProt Q9NR33 1-117, looked up)
chain: MAAAAAAGSGTPREEEGPAGEAAASQPQAPTSVPGARLSRLPLARVKALVKADPDVTLAGQEAIFILARAAELFVETIAKDAYCCAQQGKRKTLQRRDLDNAIEAVDEFAFLEGTLD
notes: DNA polymerase epsilon subunit POLE4, human, full length; cloned in pGEX 6P-1; also called GST-POLE4; source: E. coli BL21(DE3) pLysS, purified (glutathione-Sepharose 4B)
On to B2, for which, in the assay with His-tagged POLE3, the binding result is reported as “binds”.
